The record followed here is article PMC10955490.

Data set [1] addresses T1, SlERF36 (Solanum lycopersicum (tomato), UniProt A0A3Q7IBC2 1-221). Briefly: EMSA. A general note: A gel shift assay detects complexes by their altered migration in electrophoresis.
The target in data set [2] is T1, SlERF36. Briefly: competition.

B1: SlGA2ox3 promoter GCC-box probe (dsDNA)
DNA 1: ATGCCCCCATCTGCCGCCCCTTCATATTTC
DNA 2: GAAATATGAAGGGGCGGCAGATGGGGGCAT
Turning to B1, the binding result in data set [1] is recorded as “binds”.

B2: SlGA2ox3 promoter mutated probe (dsDNA)
DNA 1: ATGCCCCCATCTAAAAAACCTTCATATTTC
DNA 2: GAAATATGAAGGTTTTTTAGATGGGGGCAT
For the molecule B2, in data set [1], the binding result is “no binding”.

B3: SlGA2ox3 promoter GCC-box unlabelled competitor (dsDNA)
DNA 1: B1 DNA 1
DNA 2: B1 DNA 2
With B3, the binding result in data set [2] is reported as “binds”.
